Test results taken from the supplement of paper PMC10065799, “High-throughput profiling of sequence recognition by tyrosine kinases and SH2 domains using bacterial peptide display” (eLife, 2023).

Key:
Grb2 SH2 = Grb2 SH2 (UniProt P62993); assay: SH2 binding enrichment of the phosphorylated peptide, bacterial display (enrichment ratio); higher = better substrate or ligand; peptides without Tyr show the background
c-Src SH2 = assay: as above
SHP2-C SH2 = assay: as above
AncSZ = assay: phosphorylation enrichment, bacterial display (enrichment ratio); higher = better substrate or ligand; peptides without Tyr show the background
Fer (mouse) = assay: as above
c-Src = assay: as above
Fes = Fes (UniProt P07332); assay: as above
MERTK = MERTK (UniProt Q12866); assay: as above
FGFR3 = FGFR3 (UniProt P22607); assay: as above
Sequence of FGFR3 (P22607 whole entry, looked up): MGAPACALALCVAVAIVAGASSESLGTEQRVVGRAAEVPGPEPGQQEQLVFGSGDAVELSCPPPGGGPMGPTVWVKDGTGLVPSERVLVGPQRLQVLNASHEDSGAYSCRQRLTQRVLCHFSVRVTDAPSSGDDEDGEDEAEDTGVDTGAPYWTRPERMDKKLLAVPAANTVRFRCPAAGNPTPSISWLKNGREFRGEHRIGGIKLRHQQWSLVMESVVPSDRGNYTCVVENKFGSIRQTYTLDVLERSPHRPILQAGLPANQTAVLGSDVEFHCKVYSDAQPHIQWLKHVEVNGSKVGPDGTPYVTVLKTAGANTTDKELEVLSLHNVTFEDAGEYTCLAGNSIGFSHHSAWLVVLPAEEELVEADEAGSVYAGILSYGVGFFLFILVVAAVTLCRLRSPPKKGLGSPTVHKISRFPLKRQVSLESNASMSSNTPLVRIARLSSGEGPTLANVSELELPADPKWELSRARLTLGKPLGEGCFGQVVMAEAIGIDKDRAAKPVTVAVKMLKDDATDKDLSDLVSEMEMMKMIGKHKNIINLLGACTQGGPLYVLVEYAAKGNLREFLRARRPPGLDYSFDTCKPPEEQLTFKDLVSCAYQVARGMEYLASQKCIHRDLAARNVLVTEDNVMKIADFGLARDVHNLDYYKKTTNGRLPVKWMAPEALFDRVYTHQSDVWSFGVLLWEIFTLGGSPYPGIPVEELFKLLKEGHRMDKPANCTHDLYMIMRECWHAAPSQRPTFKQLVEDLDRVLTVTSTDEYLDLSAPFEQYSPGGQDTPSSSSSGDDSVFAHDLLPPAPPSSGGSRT

EPHB2 = EPHB2 (UniProt P29323); assay: as above
Jak2 = Jak2 (UniProt O60674); assay: as above
Sequence of Jak2 (O60674 whole entry, looked up): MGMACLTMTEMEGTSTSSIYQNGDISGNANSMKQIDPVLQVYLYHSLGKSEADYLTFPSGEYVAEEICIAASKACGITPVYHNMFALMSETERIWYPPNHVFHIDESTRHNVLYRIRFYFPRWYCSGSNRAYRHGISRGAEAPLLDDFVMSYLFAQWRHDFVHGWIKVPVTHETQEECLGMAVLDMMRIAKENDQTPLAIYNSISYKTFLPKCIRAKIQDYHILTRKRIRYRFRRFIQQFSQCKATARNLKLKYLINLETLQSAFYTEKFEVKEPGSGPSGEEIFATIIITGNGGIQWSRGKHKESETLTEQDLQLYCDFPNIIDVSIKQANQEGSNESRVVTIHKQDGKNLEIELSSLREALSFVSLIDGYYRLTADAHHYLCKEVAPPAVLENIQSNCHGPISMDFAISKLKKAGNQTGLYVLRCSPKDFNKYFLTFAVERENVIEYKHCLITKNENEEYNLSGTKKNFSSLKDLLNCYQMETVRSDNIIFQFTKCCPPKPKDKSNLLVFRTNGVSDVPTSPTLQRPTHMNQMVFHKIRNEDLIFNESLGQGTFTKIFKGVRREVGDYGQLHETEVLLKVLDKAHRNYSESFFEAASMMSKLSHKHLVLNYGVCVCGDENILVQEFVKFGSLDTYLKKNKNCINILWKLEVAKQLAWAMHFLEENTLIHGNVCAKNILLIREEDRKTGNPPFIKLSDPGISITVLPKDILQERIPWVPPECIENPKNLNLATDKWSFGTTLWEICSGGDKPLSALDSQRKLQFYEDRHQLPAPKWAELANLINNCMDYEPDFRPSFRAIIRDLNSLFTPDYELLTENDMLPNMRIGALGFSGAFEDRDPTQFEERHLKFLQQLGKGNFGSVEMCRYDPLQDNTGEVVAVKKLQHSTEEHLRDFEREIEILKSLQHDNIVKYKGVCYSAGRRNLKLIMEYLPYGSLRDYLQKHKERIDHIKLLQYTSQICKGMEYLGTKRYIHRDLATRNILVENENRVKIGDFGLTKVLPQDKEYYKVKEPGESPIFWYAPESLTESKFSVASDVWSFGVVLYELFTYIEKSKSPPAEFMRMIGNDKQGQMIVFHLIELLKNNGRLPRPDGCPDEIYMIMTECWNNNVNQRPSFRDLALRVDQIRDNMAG

Hck = Hck (UniProt P08631); assay: as above
Sequence of Hck (P08631 whole entry, looked up): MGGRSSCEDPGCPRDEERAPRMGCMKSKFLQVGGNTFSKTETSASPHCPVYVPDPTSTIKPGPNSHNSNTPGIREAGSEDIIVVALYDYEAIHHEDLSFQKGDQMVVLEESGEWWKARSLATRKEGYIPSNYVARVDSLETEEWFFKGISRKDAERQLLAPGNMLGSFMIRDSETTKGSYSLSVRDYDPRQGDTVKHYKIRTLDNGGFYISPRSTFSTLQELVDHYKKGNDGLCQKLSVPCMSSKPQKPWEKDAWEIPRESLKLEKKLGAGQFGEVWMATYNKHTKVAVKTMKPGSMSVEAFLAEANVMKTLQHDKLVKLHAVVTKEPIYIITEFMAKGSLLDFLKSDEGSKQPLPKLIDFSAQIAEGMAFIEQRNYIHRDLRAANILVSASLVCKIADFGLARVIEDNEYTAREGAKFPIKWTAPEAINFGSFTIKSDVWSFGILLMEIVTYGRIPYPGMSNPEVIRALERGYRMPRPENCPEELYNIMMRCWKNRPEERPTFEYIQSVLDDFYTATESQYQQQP

EPHB1 = EPHB1 (UniProt P54762); assay: as above
Sequence of EPHB1 (P54762 whole entry, looked up): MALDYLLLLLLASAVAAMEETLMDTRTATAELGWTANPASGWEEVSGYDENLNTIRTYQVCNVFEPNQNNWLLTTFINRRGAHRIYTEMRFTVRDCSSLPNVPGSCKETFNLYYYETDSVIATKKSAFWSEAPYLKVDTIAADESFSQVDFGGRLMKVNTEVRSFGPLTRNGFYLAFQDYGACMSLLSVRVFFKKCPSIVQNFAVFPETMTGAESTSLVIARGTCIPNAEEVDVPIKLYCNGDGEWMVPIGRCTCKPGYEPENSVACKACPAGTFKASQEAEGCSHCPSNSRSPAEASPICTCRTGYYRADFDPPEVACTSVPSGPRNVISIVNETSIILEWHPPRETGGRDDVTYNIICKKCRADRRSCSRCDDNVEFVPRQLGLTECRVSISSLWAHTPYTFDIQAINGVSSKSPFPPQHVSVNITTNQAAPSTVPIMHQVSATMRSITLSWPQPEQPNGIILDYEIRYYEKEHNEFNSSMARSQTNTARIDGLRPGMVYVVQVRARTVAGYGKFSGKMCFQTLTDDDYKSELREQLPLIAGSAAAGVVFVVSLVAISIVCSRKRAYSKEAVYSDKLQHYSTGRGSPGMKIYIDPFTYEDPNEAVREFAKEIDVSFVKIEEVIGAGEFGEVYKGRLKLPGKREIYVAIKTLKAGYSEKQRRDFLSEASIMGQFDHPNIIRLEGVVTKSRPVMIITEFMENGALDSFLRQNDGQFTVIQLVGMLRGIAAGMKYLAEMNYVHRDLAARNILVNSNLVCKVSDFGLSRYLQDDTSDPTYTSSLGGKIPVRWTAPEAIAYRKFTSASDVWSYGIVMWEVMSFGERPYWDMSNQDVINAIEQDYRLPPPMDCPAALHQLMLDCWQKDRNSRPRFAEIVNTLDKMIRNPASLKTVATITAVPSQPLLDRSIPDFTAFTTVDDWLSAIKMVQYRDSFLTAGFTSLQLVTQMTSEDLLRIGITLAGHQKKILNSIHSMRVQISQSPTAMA

FGFR1 = FGFR1 (UniProt P11362); assay: as above
Sequence of FGFR1 (P11362 whole entry, looked up): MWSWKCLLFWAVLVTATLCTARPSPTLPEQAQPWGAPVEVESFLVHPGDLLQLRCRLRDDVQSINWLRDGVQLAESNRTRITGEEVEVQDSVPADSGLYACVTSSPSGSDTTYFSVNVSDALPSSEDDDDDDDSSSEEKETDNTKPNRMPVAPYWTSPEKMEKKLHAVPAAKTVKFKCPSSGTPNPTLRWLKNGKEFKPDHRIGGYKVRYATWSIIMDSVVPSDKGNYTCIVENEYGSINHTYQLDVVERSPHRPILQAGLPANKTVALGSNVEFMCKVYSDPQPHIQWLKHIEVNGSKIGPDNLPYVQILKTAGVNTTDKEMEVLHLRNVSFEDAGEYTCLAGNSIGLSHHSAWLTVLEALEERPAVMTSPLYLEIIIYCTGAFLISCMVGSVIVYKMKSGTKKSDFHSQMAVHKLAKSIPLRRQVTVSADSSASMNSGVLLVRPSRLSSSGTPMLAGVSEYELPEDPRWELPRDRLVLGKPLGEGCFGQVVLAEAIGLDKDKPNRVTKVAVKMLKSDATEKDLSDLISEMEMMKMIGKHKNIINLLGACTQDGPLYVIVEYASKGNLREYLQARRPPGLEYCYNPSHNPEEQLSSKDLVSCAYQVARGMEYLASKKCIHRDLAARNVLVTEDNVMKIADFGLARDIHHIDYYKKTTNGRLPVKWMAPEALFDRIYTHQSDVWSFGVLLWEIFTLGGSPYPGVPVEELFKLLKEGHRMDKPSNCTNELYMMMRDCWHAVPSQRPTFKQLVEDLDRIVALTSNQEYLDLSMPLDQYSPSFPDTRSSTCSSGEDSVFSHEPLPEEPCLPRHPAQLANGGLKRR

c-Abl (mouse) = assay: as above
Fyn = Fyn (UniProt P06241); assay: as above
Sequence of Fyn (P06241 whole entry, looked up, the tested form may be a part): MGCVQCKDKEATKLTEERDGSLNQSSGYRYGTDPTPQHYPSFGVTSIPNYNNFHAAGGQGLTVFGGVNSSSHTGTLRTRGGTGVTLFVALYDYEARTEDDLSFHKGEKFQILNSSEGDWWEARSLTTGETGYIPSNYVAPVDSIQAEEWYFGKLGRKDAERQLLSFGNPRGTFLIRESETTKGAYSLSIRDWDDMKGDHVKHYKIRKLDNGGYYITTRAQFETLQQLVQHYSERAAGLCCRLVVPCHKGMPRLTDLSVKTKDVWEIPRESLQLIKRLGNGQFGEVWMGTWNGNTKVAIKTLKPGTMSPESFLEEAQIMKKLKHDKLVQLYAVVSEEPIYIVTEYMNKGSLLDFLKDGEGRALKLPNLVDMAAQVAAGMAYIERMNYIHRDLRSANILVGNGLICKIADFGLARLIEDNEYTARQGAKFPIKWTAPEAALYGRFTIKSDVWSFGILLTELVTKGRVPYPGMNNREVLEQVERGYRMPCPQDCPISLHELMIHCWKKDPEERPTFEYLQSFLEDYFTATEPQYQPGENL
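For SH2 binding enrichment of the phosphorylated peptide, bacterial display in this document: peptide library displayed on the E. coli surface as eCPX fusions, selected cells deep-sequenced, score is each peptide's frequency after selection divided by its frequency in the input.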
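For phosphorylation enrichment, bacterial display in this document: 11-residue human phosphosite peptides and single-mutation variants displayed on the E. coli surface, counted by deep sequencing, each peptide's frequency after selection divided by its frequency in the unselected input library; frequency after pTyr selection over input frequency; kinase dosed for 20-30% of maximal phosphorylation in three min.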

Sequence of Grb2 SH2 (P62993 whole entry, looked up): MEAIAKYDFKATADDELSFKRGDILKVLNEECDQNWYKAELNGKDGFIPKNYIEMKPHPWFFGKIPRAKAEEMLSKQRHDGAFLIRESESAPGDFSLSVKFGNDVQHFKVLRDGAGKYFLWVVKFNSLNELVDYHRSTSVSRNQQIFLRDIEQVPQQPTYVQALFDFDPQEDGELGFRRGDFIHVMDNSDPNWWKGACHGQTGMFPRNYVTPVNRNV

Row | Sequence | SH2 binding enrichment (Grb2 SH2) | SH2 binding enrichment (c-Src SH2) | SH2 binding enrichment (SHP2-C SH2) | phosphorylation enrichment (AncSZ) | phosphorylation enrichment (Fer (mouse)) | phosphorylation enrichment (c-Src) | phosphorylation enrichment (Fes) | phosphorylation enrichment (MERTK) | phosphorylation enrichment (FGFR3) | phosphorylation enrichment (EPHB2) | phosphorylation enrichment (Jak2) | phosphorylation enrichment (Hck) | phosphorylation enrichment (EPHB1) | phosphorylation enrichment (FGFR1) | phosphorylation enrichment (c-Abl (mouse)) | phosphorylation enrichment (Fyn)
1 | DAVCFYRMENA [NPHS2_Y195_I192V_YF] | 0.714 | 0.437 | 0.674 | 1.21 | 0.614 | 3.07 | 1.23 | 0.695 | 1.06 | 0.685 | 1.22 | 0.788 | 0.698 | 0.698 | 0.882 | 0.986
2 | DDHFTYSRFPW [LY75_Y888_YF] | 0.833 | 0.418 | 0.64 | 1.16 | 0.609 | 4.98 | 1.07 | 3.18 | 0.797 | 5.18 | 1.28 | 6.66 | 4.84 | 0.905 | 1.66 | 4.83
3 | DEEFEYMNRRR [ERBB3_Y1199_YF] | 0.842 | 0.521 | 0.799 | 1.3 | 0.474 | 0.564 | 1.18 | 0.597 | 0.612 | 0.66 | 1.01 | 0.497 | 0.481 | 0.591 | 0.688 | 0.643
4 | DFEGLYQEGGG [TMEM159_Y159_E154D] | 0.67 | 0.453 | 0.461 | 1.23 | 0.64 | 0.923 | 1.17 | 0.453 | 0.817 | 0.791 | 0.88 | 1.22 | 0.746 | 0.761 | 0.569 | 0.874
5 | DGTVHYVDEKG [IFT140_Y216] | 0.64 | 0.381 | 0.544 | 1.02 | 0.593 | 0.376 | 1.23 | 0.443 | 0.83 | 0.682 | 0.832 | 0.586 | 0.666 | 0.592 | 0.653 | 0.671
6 | DHAGEYGAEAL [HBA1_Y25_A20D] | 0.825 | 0.506 | 1.11 | 0.86 | 0.403 | 0.405 | 0.892 | 0.343 | 0.621 | 0.569 | 0.675 | 0.495 | 0.426 | 0.509 | 0.546 | 0.427
7 | DHPSEYAARQL [ANXA13_Y90_R86H] | 0.826 | 0.483 | 0.657 | 0.657 | 0.365 | 0.482 | 0.633 | 0.453 | 0.445 | 0.494 | 0.576 | 0.525 | 0.352 | 0.496 | 0.66 | 0.454
8 | DKATEYIQFMR [MAX_Y70_YF] | 0.887 | 0.565 | 0.608 | 1 | 0.439 | 0.703 | 1.01 | 0.439 | 0.655 | 0.549 | 0.793 | 0.69 | 0.528 | 0.589 | 0.803 | 0.675
9 | DKATEYIQYMR [MAX_Y70] | 0.938 | 0.469 | 1.4 | 0.852 | 0.394 | 0.486 | 0.622 | 0.4 | 0.572 | 0.451 | 0.625 | 0.504 | 0.448 | 0.479 | 0.499 | 0.624
10 | DKGTLYIAEQI [PLBD1_Y375_V377A] | 0.664 | 0.44 | 0.54 | 0.763 | 0.372 | 0.383 | 0.887 | 0.346 | 0.666 | 0.446 | 0.743 | 0.447 | 0.565 | 0.441 | 0.65 | 0.459
11 | DKTGEYPVPLT [ACADM_Y73_I78T] | 0.924 | 0.474 | 0.522 | 0.863 | 0.397 | 0.448 | 0.902 | 0.44 | 0.578 | 0.438 | 0.649 | 0.382 | 0.502 | 0.426 | 0.57 | 0.487
12 | DLGIQYKALKP [CTNNA1_Y177] | 0.897 | 0.361 | 0.594 | 0.754 | 0.498 | 0.449 | 0.853 | 0.453 | 0.631 | 0.442 | 0.725 | 0.485 | 0.568 | 0.507 | 0.573 | 0.388
13 | DLLMQYPKAQG [FAM83C_Y600] | 0.882 | 0.485 | 0.763 | 0.812 | 0.452 | 0.352 | 0.543 | 0.356 | 0.467 | 0.301 | 0.496 | 0.364 | 0.498 | 0.341 | 0.491 | 0.385
14 | DLQDEYDFKRK [STAT1_Y170_C174R] | 0.902 | 0.505 | 0.682 | 0.992 | 0.463 | 0.476 | 1.16 | 0.355 | 0.643 | 0.54 | 0.916 | 0.472 | 0.495 | 0.472 | 0.588 | 0.465
15 | DPHECYAKVFD [ALB_Y394] | 0.987 | 3.02 | 1.32 | 1.11 | 0.584 | 0.665 | 1.14 | 0.42 | 0.749 | 0.591 | 0.88 | 0.582 | 0.593 | 0.506 | 0.692 | 0.488
16 | DPLLTYLFPPK [LMNA_Y481_R482L] | 0.991 | 0.574 | 1.19 | 2.2 | 0.481 | 3.12 | 1.08 | 0.772 | 2.62 | 0.781 | 2.79 | 0.87 | 0.992 | 4.35 | 0.836 | 1.8
